{"source": "the supplement of paper PMC9112550", "about": "“Optimization of the antimicrobial peptide Bac7 by deep mutational scanning” (BMC Biology, 2022);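 further: peptides expressed intracellularly from a pBAD plasmid library in pooled LB shake-flask culture, induced with 0.3% L-arabinose, DNA abundance read by NGS, three biological replicates, DESeq2 with apeglm shrinkage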"}
{"test_system": "Escherichia coli TOP10", "experiment": "shrunken log2 fold change of peptide-encoding DNA abundance (4.5 h post-induction vs induction); higher = less antimicrobial activity (less host growth inhibition)", "conditions": "time post-induction: 4.5 h; library: site-saturation at positions 5, 18, 19, 20"}
{"sequence": "RRIRRRPPRLPRPRPRPGWFPRP", "shrunken log2 fold change": 0.283}
{"sequence": "RRIRGRPPRLPRPRPRPIMNPRP", "shrunken log2 fold change": 0.237}
{"sequence": "RRIRWRPPRLPRPRPRPFGYPRP", "shrunken log2 fold change": -0.0944}
{"sequence": "RRIRIRPPRLPRPRPRPLQFPRP", "shrunken log2 fold change": -0.0429}
{"sequence": "RRIRFRPPRLPRPRPRPHLMPRP", "shrunken log2 fold change": -0.149}
{"sequence": "RRIRDRPPRLPRPRPRPMCMPRP", "shrunken log2 fold change": 0.0237}
{"sequence": "RRIRTRPPRLPRPRPRPWLAPRP", "shrunken log2 fold change": 0.216}
{"sequence": "RRIRTRPPRLPRPRPRPCHLPRP", "shrunken log2 fold change": 0.0039}
{"sequence": "RRIRYRPPRLPRPRPRPPNDPRP", "shrunken log2 fold change": -0.151}
{"sequence": "RRIRLRPPRLPRPRPRPICRPRP", "shrunken log2 fold change": -0.13}
{"sequence": "RRIRKRPPRLPRPRPRPNDTPRP", "shrunken log2 fold change": -0.11}
{"sequence": "RRIRDRPPRLPRPRPRPPPTPRP", "shrunken log2 fold change": 0.973}
{"sequence": "RRIRARPPRLPRPRPRPFLTPRP", "shrunken log2 fold change": 0.085}
{"sequence": "RRIRQRPPRLPRPRPRPDCVPRP", "shrunken log2 fold change": -0.0384}
{"sequence": "RRIRRRPPRLPRPRPRPYPTPRP", "shrunken log2 fold change": -0.0423}
{"sequence": "RRIRLRPPRLPRPRPRPNHGPRP", "shrunken log2 fold change": -0.17}
{"sequence": "RRIRPRPPRLPRPRPRPRSDPRP", "shrunken log2 fold change": 0.179}
{"sequence": "RRIRWRPPRLPRPRPRPEEDPRP", "shrunken log2 fold change": 0.00839}
{"sequence": "RRIRARPPRLPRPRPRPRRWPRP", "shrunken log2 fold change": 0.739}
{"sequence": "RRIRKRPPRLPRPRPRPKVCPRP", "shrunken log2 fold change": -0.0666}
{"sequence": "RRIRYRPPRLPRPRPRPSQFPRP", "shrunken log2 fold change": -0.257}
{"sequence": "RRIRERPPRLPRPRPRPNQHPRP", "shrunken log2 fold change": -0.228}
{"sequence": "RRIRVRPPRLPRPRPRPEVLPRP", "shrunken log2 fold change": 0.244}
{"sequence": "RRIRDRPPRLPRPRPRPMHAPRP", "shrunken log2 fold change": 0.121}
{"sequence": "RRIRARPPRLPRPRPRPQQRPRP", "shrunken log2 fold change": 0.199}
{"sequence": "RRIRGRPPRLPRPRPRPNECPRP", "shrunken log2 fold change": 0.421}
{"sequence": "RRIRDRPPRLPRPRPRPFYSPRP", "shrunken log2 fold change": -0.304}
{"sequence": "RRIRYRPPRLPRPRPRPDHHPRP", "shrunken log2 fold change": -0.0423}
{"sequence": "RRIRDRPPRLPRPRPRPKSGPRP", "shrunken log2 fold change": 0.0754}
{"sequence": "RRIRSRPPRLPRPRPRPYGKPRP", "shrunken log2 fold change": -0.0603}
{"sequence": "RRIRNRPPRLPRPRPRPPFFPRP", "shrunken log2 fold change": 0.162}
{"sequence": "RRIRWRPPRLPRPRPRPGWIPRP", "shrunken log2 fold change": 0.207}
{"sequence": "RRIRYRPPRLPRPRPRPKAPPRP", "shrunken log2 fold change": 0.291}
{"sequence": "RRIRYRPPRLPRPRPRPSLIPRP", "shrunken log2 fold change": -1.15}
{"sequence": "RRIRMRPPRLPRPRPRPKPVPRP", "shrunken log2 fold change": 0.895}
{"sequence": "RRIRSRPPRLPRPRPRPGTGPRP", "shrunken log2 fold change": 0.103}
{"sequence": "RRIRWRPPRLPRPRPRPMMGPRP", "shrunken log2 fold change": 0.0383}
{"sequence": "RRIRVRPPRLPRPRPRPVTFPRP", "shrunken log2 fold change": -0.467}
{"sequence": "RRIRIRPPRLPRPRPRPDPQPRP", "shrunken log2 fold change": -0.186}
{"sequence": "RRIRFRPPRLPRPRPRPQDDPRP", "shrunken log2 fold change": -0.493}
{"sequence": "RRIRRRPPRLPRPRPRPIWVPRP", "shrunken log2 fold change": 0.222}
{"sequence": "RRIRPRPPRLPRPRPRPPMGPRP", "shrunken log2 fold change": 0.325}
{"sequence": "RRIRHRPPRLPRPRPRPPADPRP", "shrunken log2 fold change": 0.492}
{"sequence": "RRIRTRPPRLPRPRPRPMQLPRP", "shrunken log2 fold change": -0.191}
{"sequence": "RRIRRRPPRLPRPRPRPYLHPRP", "shrunken log2 fold change": -0.307}
{"sequence": "RRIRFRPPRLPRPRPRPVPVPRP", "shrunken log2 fold change": 0.143}
{"sequence": "RRIRMRPPRLPRPRPRPFCQPRP", "shrunken log2 fold change": 0.0975}
{"sequence": "RRIRSRPPRLPRPRPRPFHKPRP", "shrunken log2 fold change": -0.0363}
{"sequence": "RRIRGRPPRLPRPRPRPAPGPRP", "shrunken log2 fold change": 1.12}
{"sequence": "RRIRKRPPRLPRPRPRPGLDPRP", "shrunken log2 fold change": 0.626}
{"sequence": "RRIRVRPPRLPRPRPRPPDAPRP", "shrunken log2 fold change": 0.254}
{"sequence": "RRIRPRPPRLPRPRPRPLAGPRP", "shrunken log2 fold change": 0.3}
{"sequence": "RRIRLRPPRLPRPRPRPQQFPRP", "shrunken log2 fold change": -0.0691}
{"sequence": "RRIRWRPPRLPRPRPRPFMGPRP", "shrunken log2 fold change": 0.0373}
{"sequence": "RRIRQRPPRLPRPRPRPNGQPRP", "shrunken log2 fold change": -0.262}
{"sequence": "RRIRLRPPRLPRPRPRPKPCPRP", "shrunken log2 fold change": -0.158}
{"sequence": "RRIRFRPPRLPRPRPRPEANPRP", "shrunken log2 fold change": 0.666}
{"sequence": "RRIRLRPPRLPRPRPRPDFLPRP", "shrunken log2 fold change": -0.181}
{"sequence": "RRIRFRPPRLPRPRPRPCYAPRP", "shrunken log2 fold change": -0.618}
{"sequence": "RRIRQRPPRLPRPRPRPKKNPRP", "shrunken log2 fold change": 0.0205}
{"sequence": "RRIRERPPRLPRPRPRPNKHPRP", "shrunken log2 fold change": -0.575}
{"sequence": "RRIRCRPPRLPRPRPRPGFYPRP", "shrunken log2 fold change": -0.449}
{"sequence": "RRIRLRPPRLPRPRPRPDNNPRP", "shrunken log2 fold change": -0.444}
{"sequence": "RRIRRRPPRLPRPRPRPARGPRP", "shrunken log2 fold change": 0.731}
{"sequence": "RRIRARPPRLPRPRPRPNTCPRP", "shrunken log2 fold change": 0.136}
{"sequence": "RRIRTRPPRLPRPRPRPWLKPRP", "shrunken log2 fold change": 0.18}
{"sequence": "RRIRGRPPRLPRPRPRPNQQPRP", "shrunken log2 fold change": 0.0317}
{"sequence": "RRIRWRPPRLPRPRPRPVDLPRP", "shrunken log2 fold change": -0.107}
{"sequence": "RRIRTRPPRLPRPRPRPNYHPRP", "shrunken log2 fold change": -1.14}
{"sequence": "RRIRWRPPRLPRPRPRPYHQPRP", "shrunken log2 fold change": -0.0735}
{"sequence": "RRIRVRPPRLPRPRPRPVGIPRP", "shrunken log2 fold change": -0.0251}
{"sequence": "RRIRYRPPRLPRPRPRPMYSPRP", "shrunken log2 fold change": -0.018}
{"sequence": "RRIRRRPPRLPRPRPRPLGDPRP", "shrunken log2 fold change": 0.682}
{"sequence": "RRIRNRPPRLPRPRPRPSQWPRP", "shrunken log2 fold change": -0.194}
{"sequence": "RRIRYRPPRLPRPRPRPQFIPRP", "shrunken log2 fold change": -1.19}
{"sequence": "RRIRNRPPRLPRPRPRPIHIPRP", "shrunken log2 fold change": -0.58}
{"sequence": "RRIRWRPPRLPRPRPRPINEPRP", "shrunken log2 fold change": 0.402}
{"sequence": "RRIRYRPPRLPRPRPRPVWCPRP", "shrunken log2 fold change": -0.0399}
{"sequence": "RRIRNRPPRLPRPRPRPCFNPRP", "shrunken log2 fold change": 0.0695}
{"sequence": "RRIRTRPPRLPRPRPRPALMPRP", "shrunken log2 fold change": 0.165}
{"sequence": "RRIRERPPRLPRPRPRPGPSPRP", "shrunken log2 fold change": -0.109}
{"sequence": "RRIRSRPPRLPRPRPRPCLNPRP", "shrunken log2 fold change": -0.0696}
{"sequence": "RRIRKRPPRLPRPRPRPSHNPRP", "shrunken log2 fold change": -0.351}
{"sequence": "RRIRQRPPRLPRPRPRPQHHPRP", "shrunken log2 fold change": -0.527}
{"sequence": "RRIRLRPPRLPRPRPRPYNVPRP", "shrunken log2 fold change": -0.119}
{"sequence": "RRIRYRPPRLPRPRPRPAELPRP", "shrunken log2 fold change": -0.187}
{"sequence": "RRIRLRPPRLPRPRPRPYMCPRP", "shrunken log2 fold change": -0.252}
{"sequence": "RRIRMRPPRLPRPRPRPCPQPRP", "shrunken log2 fold change": 0.0219}
{"sequence": "RRIRTRPPRLPRPRPRPKAVPRP", "shrunken log2 fold change": 0.26}
{"sequence": "RRIRCRPPRLPRPRPRPQNKPRP", "shrunken log2 fold change": -0.526}
{"sequence": "RRIRERPPRLPRPRPRPVLTPRP", "shrunken log2 fold change": -0.126}
{"sequence": "RRIRNRPPRLPRPRPRPEPWPRP", "shrunken log2 fold change": 0.0625}
{"sequence": "RRIRKRPPRLPRPRPRPSALPRP", "shrunken log2 fold change": 0.271}
{"sequence": "RRIRHRPPRLPRPRPRPNSVPRP", "shrunken log2 fold change": -0.00436}
{"sequence": "RRIRKRPPRLPRPRPRPADGPRP", "shrunken log2 fold change": 0.223}
{"sequence": "RRIRDRPPRLPRPRPRPNAEPRP", "shrunken log2 fold change": 0.359}
{"sequence": "RRIRARPPRLPRPRPRPNDYPRP", "shrunken log2 fold change": -0.471}
{"sequence": "RRIRRRPPRLPRPRPRPMSCPRP", "shrunken log2 fold change": 0.0813}
{"sequence": "RRIRRRPPRLPRPRPRPRCQPRP", "shrunken log2 fold change": 0.385}
{"sequence": "RRIRARPPRLPRPRPRPGQAPRP", "shrunken log2 fold change": -0.0216}
{"sequence": "RRIRMRPPRLPRPRPRPYQLPRP", "shrunken log2 fold change": 0.0393}
{"sequence": "RRIRPRPPRLPRPRPRPGPEPRP", "shrunken log2 fold change": 0.213}
{"sequence": "RRIRIRPPRLPRPRPRPLFAPRP", "shrunken log2 fold change": -0.0892}
{"sequence": "RRIRARPPRLPRPRPRPIEHPRP", "shrunken log2 fold change": 0.126}
{"sequence": "RRIRGRPPRLPRPRPRPTIHPRP", "shrunken log2 fold change": 0.434}
{"sequence": "RRIRSRPPRLPRPRPRPMPGPRP", "shrunken log2 fold change": -0.102}
{"sequence": "RRIRLRPPRLPRPRPRPPCNPRP", "shrunken log2 fold change": -0.126}
{"sequence": "RRIRLRPPRLPRPRPRPGYCPRP", "shrunken log2 fold change": -0.416}
{"sequence": "RRIRQRPPRLPRPRPRPMDAPRP", "shrunken log2 fold change": 0.05}
